Laboratory results as given in article PMC1891329.

Biological target: full-length MglA (residues 1–205) fused to Zif or to the ω subunit of E. coli RNAP (F. tularensis subspecies holarctica LVS)
Assay: two-hybrid

In the case of “full-length F. tularensis LVS SspA (residues 1–210) fused to the ω subunit of E. coli RNAP or to Zif (natural protein)”, the fold activation of the lacZ reporter is reported as 22 fold.
